The values that follow come from the supplement of paper PMC10567573.

A short description of the data set: protein stability index of a GFP-peptide fusion (GPS, HEK-293T) (PSI 1-6); higher = more stable. The note with it: c terminus: a fixed tail appended.

± gives the standard deviation.
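Further: 24-mer peptide tiles fused after GFP, lentivirally expressed, FACS-sorted into six equal bins by GFP/DsRed ratio, decoded by Illumina sequencing, PSI is the read-weighted mean bin number.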

On to IWLAESVLDILTEQREWVLKSSIL [INTS3], for which the protein stability index stood at 2.88 ± 0.82 (treatment: DMSO) and 2.6 ± 0.84 (treatment: MLN4924 1 uM, 8 h).
IYQGEDLPHPKSMLQATAEANNLA [ATL3]: the protein stability index is, setting by setting: (treatment: DMSO) 4.25 ± 0.23; (treatment: MLN4924 1 uM, 8 h) 4.332 ± 0.041.
In the case of KAAALPPFPLGASAQNGLASSLPA [PLAGL1], the protein stability index reads like this: (treatment: DMSO) 3.75 ± 0.21; (treatment: MLN4924 1 uM, 8 h) 3.82 ± 0.21.
As to KAPKKDVIKMLVNDNKVLRYLAVL [EFHC1], the protein stability index (treatment: DMSO) stood at 2.65 ± 0.49 and the protein stability index (treatment: MLN4924 1 uM, 8 h) came to 2.44 ± 0.58.
In the same order, the values of KCFHEIITIGYRVYHSYDLPWFRT [CDS1] are 2.88 ± 0.49 and 2.87 ± 0.56.
The like results for KDAYVQKLVKVCNGHDCWSLISLS [TENT5D] were, in that order, 2.43 ± 0.41 and 2.14 ± 0.26.
In the case of KEEAQAEIEQYRLQREKEFKAKEA [ATP6V1G1], the protein stability index by setting is: (treatment: DMSO) 5.5 ± 0.21; (treatment: MLN4924 1 uM, 8 h) 5.58 ± 0.38.
In the case of KEEKCQGKGDDSETDKNNCSNAKA [KCNA4], the protein stability index is, setting by setting: (treatment: DMSO) 5.49 ± 0.088; (treatment: MLN4924 1 uM, 8 h) 5.55 ± 0.19.
As to KEILRTLQDVFCWLPLATLIDEKV [PPEF2], the protein stability index worked out at 2.46 ± 0.25 (treatment: DMSO) and 3.03 ± 0.57 (treatment: MLN4924 1 uM, 8 h).
The like results for KETLRLHPDIFLPSEICDRLVNEY [ZER1] were, in that order, 2.82 ± 0.39 and 2.83 ± 0.21.
In the same order, the values of KFMLREQFEANGYFFKRPYPFVLF [KMT2E] are 3.41 ± 0.39 and 2.73 ± 0.97.
In the same order, the values of KFSGLYILSFTVIMVGFILYCSTP [SLC35F2] are 3.22 ± 0.4 and 3.17 ± 0.24.
Regarding KFSPFGQWWASVGMDDFLGVYSMP [TLE6], the protein stability index is, setting by setting: (treatment: DMSO) 2.62 ± 0.67; (treatment: MLN4924 1 uM, 8 h) 2.35 ± 0.4.
The like results for KGAVPRSIPNLAEVKKKGKMKKLG [HDAC6] were, in that order, 4.51 ± 0.36 and 4.35 ± 0.5.
The like results for KHPRQTLEVINLLRKHRELCDVVL [KLHL20] were, in that order, 2.34 ± 0.43 and 2.17 ± 0.25.
In the same order, the values of KKKTKVLKQRTVIEMFKSITHSTV [EHMT1] are 2.44 ± 0.35 and 2.19 ± 0.47.
On to KKNWRRVYKSLLLLAYLIRNGSER [CLINT1], for which the protein stability index (treatment: DMSO) stood at 2.35 ± 0.65 and the protein stability index (treatment: MLN4924 1 uM, 8 h) was determined as 2.44 ± 0.29.
In the same order, the values of KKREKQREQMEQMKQRIAEENIMK [FAM50A] are 4.8 ± 0.18 and 4.78 ± 0.41.
The like results for KKRFTRRSHLIGHQRTHSEEETYK [ZNF449] were, in that order, 4.12 ± 0.42 and 4.23 ± 0.46.
For KKRKVDGLSTEAEQPFIPVEVLVD [PRAME], the protein stability index is 3.8 ± 0.52 (treatment: DMSO) and 4.04 ± 0.27 (treatment: MLN4924 1 uM, 8 h).
The like results for KKTVHYYAELGQCSVFPATDAPEQ [PLK2] were, in that order, 3.6 ± 0.27 and 3.64 ± 0.31.
The like results for KLRGPEPAATEAYGSGDTPGGPCD [TBX6] were, in that order, 5.35 ± 0.21 and 5.28 ± 0.31.
The like results for KLSSFYSLKLIKRLYVDKSLNLST [SERPINB5] were, in that order, 2.46 ± 0.42 and 2.18 ± 0.36.
In the case of KLTLENFYSNLILQHEERETRQKK [STK38L], the protein stability index reads like this: (treatment: DMSO) 3.24 ± 0.39; (treatment: MLN4924 1 uM, 8 h) 3.29 ± 0.46.
In the same order, the values of KNIFRIRFHDPSPAQSHTLQANDV [NET1] are 2.76 ± 0.31 and 3.06 ± 0.24.
The like results for KQKNAYIGTQGPLENTYRDFWLMV [PTPN9] were, in that order, 2.44 ± 0.51 and 2.4 ± 0.36.
The like results for KRQVPTEQARAYAEKNCMTFFEVS [RAB40C] were, in that order, 3.16 ± 0.36 and 3.29 ± 0.37.
In the case of KSMGLKKKAFVWARNIGFKVNSKK [ACSBG2], the protein stability index is 2.91 ± 0.3 (treatment: DMSO) and 2.83 ± 0.37 (treatment: MLN4924 1 uM, 8 h).
In the same order, the values of KTAGKENHFDMHRVGKWHQDFPVK [ZNF75A] are 3.09 ± 0.36 and 3.38 ± 0.13.
In the same order, the values of KTTLARQLQHDFPRALIFSTDDFF [N4BP2L1] are 2.41 ± 0.28 and 2.53 ± 0.25.
In the same order, the values of KVMKQPRCGVPDVAQFVLTEGNPR [MMP1] are 3.32 ± 0.1 and 3.38 ± 0.17.
For the sequence LADYLVPILAPRIFGSNKWTTEQQ [ARL6IP1], the protein stability index runs as follows: (treatment: DMSO) 2.34 ± 0.49; (treatment: MLN4924 1 uM, 8 h) 2.16 ± 0.16.
In the same order, the values of LANRLCLPHLVALTEQYTVTGLME [RHOBTB2] are 2.57 ± 0.6 and 2.43 ± 0.39.
In turn, LAQTRAEGQRQAQEYEALLNIKVK [KRT18] displayed a protein stability index (treatment: DMSO) of 4.26 ± 0.38 and a protein stability index (treatment: MLN4924 1 uM, 8 h) of 4.17 ± 0.15.
The like results for LCAIAGVLTIALPVPVIVSNFNYF [KCNA1] were, in that order, 3.23 ± 0.18 and 3.04 ± 0.32.
Regarding LCKEMVPLAEQTPLTLQSQPKEPQ [ZSCAN9], the protein stability index is, setting by setting: (treatment: DMSO) 5 ± 0.13; (treatment: MLN4924 1 uM, 8 h) 5.04 ± 0.24.
The like results for LCQHFEAVHSGTPVTNNLLEKCKT [SPACA9] were, in that order, 4.14 ± 0.13 and 4.19 ± 0.17.
The like results for LCREEPVVQGPDGRLELKPLLLRL [FANCE] were, in that order, 2.19 ± 0.25 and 2.48 ± 0.15.
In the same order, the values of LDKLLQGGIETGSITEMFGEFRTG [RAD51] are 3.07 ± 0.26 and 3.06 ± 0.28.
For the sequence LDPVLQAPGTGPAQTELLCCLVKM [FANCE], the protein stability index (treatment: DMSO) worked out at 2.47 ± 0.32 and the protein stability index (treatment: MLN4924 1 uM, 8 h) is 2.32 ± 0.49.
Turning to LEAHCVEFLTKHLRADNAFMLLTQ [BTBD1], the protein stability index (treatment: DMSO) was determined as 2.55 ± 0.76 and the protein stability index (treatment: MLN4924 1 uM, 8 h) is 2.81 ± 0.47.
With LEAQPYEAVFLRAVKLYNSGDFRS [P3H4], the protein stability index came to 2.42 ± 0.27 (treatment: DMSO) and 2.23 ± 0.28 (treatment: MLN4924 1 uM, 8 h).
With LEEDLYELFKKDPGFDRGQFHKQI [PI4K2A], the protein stability index (treatment: DMSO) is 3.56 ± 0.14 and the protein stability index (treatment: MLN4924 1 uM, 8 h) came to 3.56 ± 0.19.
With LEEQLQGWGEVMLMADKVLRWERA [ARL6IP1], the protein stability index (treatment: DMSO) is 2.49 ± 0.31 and the protein stability index (treatment: MLN4924 1 uM, 8 h) stood at 2.49 ± 0.27.
The like results for LEKDTMDNWDEKKLEEVVNKKHGE [ZC3H15] were, in that order, 5.54 ± 0.095 and 5.46 ± 0.19.
As to LEKESDTPLQQVSIEEILEEQRVE [LSM1], the protein stability index (treatment: DMSO) came out at 5.26 ± 0.26 and the protein stability index (treatment: MLN4924 1 uM, 8 h) is 5.53 ± 0.098.
The like results for LEKGSFVGNISKDLGLAPRELAER [PCDHGA10] were, in that order, 4.43 ± 0.35 and 4.54 ± 0.33.
The like results for LFEGLGRDKAEELLQLPDTKVGSF [SLA] were, in that order, 3.82 ± 0.28 and 4.13 ± 0.15.
The like results for LFRCIQNMPETLPNNSCYSAGIAK [TNFSF13B] were, in that order, 2.63 ± 0.3 and 2.68 ± 0.16.
On to LFYDDYYEDGEVEEEADSCFGDDE [CDC34], for which the protein stability index reads like this: (treatment: DMSO) 4.79 ± 0.17; (treatment: MLN4924 1 uM, 8 h) 4.78 ± 0.3.
For LGHAAAFSDDCDLPSAQDINRLVG [GLT8D2], the protein stability index (treatment: DMSO) stood at 4.23 ± 0.18 and the protein stability index (treatment: MLN4924 1 uM, 8 h) amounted to 4.43 ± 0.24.
The like results for LGKLPPQYALELLTVYAWERGSMK [OAS1] were, in that order, 2.31 ± 0.61 and 2.36 ± 0.41.
